Assay results as given in IntAct's records for PubMed 18369319.

B1: Beta-adrenergic receptor kinase 1 (Homo sapiens), P25098 (parent)
chain: MADLEAVLADVSYLMAMEKSKATPAARASKKILLPEPSIRSVMQKYLEDRGEVTFEKIFSQKLGYLLFRDFCLNHLEEARPLVEFYEEIKKYEKLETEEERVARSREIFDSYIMKELLACSHPFSKSATEHVQGHLGKKQVPPDLFQPYIEEICQNLRGDVFQKFIESDKFTRFCQWKNVELNIHLTMNDFSVHRIIGRGGFGEVYGCRKADTGKMYAMKCLDKKRIKMKQGETLALNERIMLSLVSTGDCPFIVCMSYAFHTPDKLSFILDLMNGGDLHYHLSQHGVFSEADMRFYAAEIILGLEHMHNRFVVYRDLKPANILLDEHGHVRISDLGLACDFSKKKPHASVGTHGYMAPEVLQKGVAYDSSADWFSLGCMLFKLLRGHSPFRQHKTKDKHEIDRMTLTMAVELPDSFSPELRSLLEGLLQRDVNRRLGCLGRGAQEVKESPFFRSLDWQMVFLQKYPPPLIPPRGEVNAADAFDIGSFDEEDTKGIKLLDSDQELYRNFPLTISERWQQEVAETVFDTINAETDRLEARKKAKNKQLGHEEDYALGKDCIMHGYMSKMGNPFLTQWQRRYFYLFPNRLEWRGEGEAPQSLLTMEEIQSVEETQIKERKCLLLKIRGGKQFILQCDSDPELVQWKKELRDAYREAQQLVQRVPKMKNKPRSPVVELSKVPLVQRGSANGL
partner: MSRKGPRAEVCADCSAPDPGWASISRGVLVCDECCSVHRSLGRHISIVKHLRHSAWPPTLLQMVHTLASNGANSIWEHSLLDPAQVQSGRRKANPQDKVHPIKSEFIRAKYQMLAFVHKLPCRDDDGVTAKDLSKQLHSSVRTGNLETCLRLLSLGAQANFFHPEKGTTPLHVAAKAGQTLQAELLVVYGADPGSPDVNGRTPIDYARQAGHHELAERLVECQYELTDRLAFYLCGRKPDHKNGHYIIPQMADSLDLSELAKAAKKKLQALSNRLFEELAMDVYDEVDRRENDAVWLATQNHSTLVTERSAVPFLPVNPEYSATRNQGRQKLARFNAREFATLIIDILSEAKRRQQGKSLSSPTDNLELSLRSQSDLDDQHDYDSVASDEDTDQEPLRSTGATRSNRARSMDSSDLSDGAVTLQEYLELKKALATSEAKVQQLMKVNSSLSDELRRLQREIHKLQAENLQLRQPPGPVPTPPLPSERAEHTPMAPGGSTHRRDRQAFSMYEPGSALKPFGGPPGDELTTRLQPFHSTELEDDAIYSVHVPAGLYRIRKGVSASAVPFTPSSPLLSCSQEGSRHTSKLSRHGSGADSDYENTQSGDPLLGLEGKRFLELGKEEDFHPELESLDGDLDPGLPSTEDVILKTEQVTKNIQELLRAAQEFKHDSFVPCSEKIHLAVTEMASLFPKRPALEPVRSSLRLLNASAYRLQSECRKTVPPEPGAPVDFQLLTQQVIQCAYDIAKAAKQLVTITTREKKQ

Variants of: B1
Conditions: with git1_human GIT1, Q9Y2X7

| Variant | effect of a mutation on the interaction |
| --- | --- |
| S670D | disrupting interaction |

Variants of: B1
Conditions: with git1_human GIT1, Q9Y2X7
Remark: another data set of the same source

| Variant | effect of a mutation on the interaction |
| --- | --- |
| S670A | increasing interaction |

Variants of: B1
Conditions: with git1_human GIT1, Q9Y2X7
Remark: another data set of the same source

| Variant | effect of a mutation on the interaction |
| --- | --- |
| Y86D;Y92D | increasing interaction |

Variants of: B1
Conditions: with git1_human GIT1, Q9Y2X7
Remark: another data set of the same source

| Variant | effect of a mutation on the interaction |
| --- | --- |
| Y13F;Y86F;Y92F | disrupting interaction |
